# Experimental data reported in the supplement of paper PMC6757056.
# ± gives the standard deviation of the averaged measurements.
# B1: library; a variant is named by its letters at N, in order (parent)
# chain: GCUGUCACCGGUGCUUGGUACGUUAUAUUCAGCCGGUCUGAUGAGUCUNNNNNNAGACGAAACAGC
# B2: library; a variant is named by its letters at N, in order (parent)
# chain: GCUGUCACCGAGAAACUGUGAAGUAUAUCUUAAACCUGGGCACUUAAAAGAUAUAUGGAGUUAGUAGUGCAACCUGCUCGGUCUGAUGAGUCCNNNNNNGGACGAAACAGC
# How the values were obtained:
# (6R,S)-folinic acid [1] = variants of: B1; experiment: normalized RNA/DNA level without ligand (relative to sTRSVctl = 100) (log10 (% of sTRSVctl)); HEK293T overexpressing SLC46A1; higher = less ribozyme self-cleavage, higher mRNA level; details: without (6R,S)-folinic acid; ligand present: no
# Procedure, shortened: (§1)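 Total RNA, extracted with EDTA 72 h after HEK293T cells were transfected with 4 µg per 6-well well of reporter-linked ribozyme switch library plasmids, was reverse-transcribed, amplified, barcoded and sequenced. Ligand, if used, was added 1 h before transfection. RNA level was derived from RNA reads divided by DNA reads and normalized to a spiked-in non-cleaving sequence or to the top sequences. This was multiplied by 100 and log10-transformed, with the top set of 25 sequences and a ≥100 DNA read minimum.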
# (6R,S)-folinic acid [2] = variants of: B1; experiment: normalized RNA/DNA level with ligand (relative to sTRSVctl = 100) (log10 (% of sTRSVctl)); HEK293T overexpressing SLC46A1; ligand concentration (+) RNA-Seq: 6 mM; higher = less ribozyme self-cleavage, higher mRNA level; details: with (6R,S)-folinic acid; ligand present: yes
# Procedure, shortened: as §1
# cyclic di-GMP [3] = variants of: B2; experiment: FACS-Seq fitted mean relative fluorescence mCherry/BFP without ligand (log10 relative fluorescence); HEK293T; ligand: cyclic di-GMP (c-di-GMP-II aptamer); higher = higher reporter protein expression; details: ligand present: no
# Procedure: (§2)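 Hammerhead (sTRSV) ribozyme switch libraries with a ligand aptamer grafted on stem I and a randomized N4-6 loop II, cloned into the 3' UTR of mCherry and transiently transfected into HEK293T cells; RNA-Seq 72 h post transfection with ligand added 1 h before transfection; RNA read count / plasmid DNA read count normalized to the non-cleaving sTRSVctl (x100), log10; sequences with >100 DNA reads. FACS-Seq: lentiviral library sorted into 6 bins after 48 h ligand, log-normal fit mean of mCherry/BFP scaled to controls. Printed sequences are partial switch sequences.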
# cyclic di-GMP [4] = variants of: B2; experiment: normalized RNA/DNA level without ligand (relative to sTRSVctl = 100) (log10 (% of sTRSVctl)); HEK293T; ligand: cyclic di-GMP (c-di-GMP-II aptamer); higher = less ribozyme self-cleavage, higher mRNA level; details: reporter: mCherry (pCS4076), ligand present: no
# Procedure: as §2
# cyclic di-GMP [5] = variants of: B2; experiment: FACS-Seq fitted mean relative fluorescence mCherry/BFP with ligand (log10 relative fluorescence); HEK293T; ligand: cyclic di-GMP (c-di-GMP-II aptamer); ligand concentration (+) FACS-Seq: 1 mM; higher = higher reporter protein expression; details: ligand present: yes
# Procedure: as §2
# cyclic di-GMP [6] = variants of: B2; experiment: normalized RNA/DNA level with ligand (relative to sTRSVctl = 100) (log10 (% of sTRSVctl)); HEK293T; ligand: cyclic di-GMP (c-di-GMP-II aptamer); ligand concentration (+) RNA-Seq: 1 mM; higher = less ribozyme self-cleavage, higher mRNA level; details: reporter: mCherry (pCS4076), ligand present: yes
# Procedure: as §2
Variant,"normalized RNA/DNA level without ligand (log10) ((6R,S)-folinic acid [1])","normalized RNA/DNA level with ligand (log10) ((6R,S)-folinic acid [2])",FACS-Seq fitted mean (log10) (cyclic di-GMP [3]),normalized RNA/DNA level without ligand (log10) (cyclic di-GMP [4]),FACS-Seq fitted mean (log10) (cyclic di-GMP [5]),normalized RNA/DNA level with ligand (log10) (cyclic di-GMP [6])
CUUUGC,2.047 ± 0.017,2.027 ± 0.016,,,,
CUUUGA,2.024 ± 0.004,2.05 ± 0.036,,,,
CUUUGU,1.986 ± 0.008,1.99 ± 0.022,,,,
CUUUGG,2.023 ± 0.0097,1.994 ± 0.013,,,,
AUUUAG,1.949 ± 0.013,2.01 ± 0.026,,,,
AUUUAA,1.953 ± 0.013,1.99 ± 0.059,,,,
AUUGCU,2.015 ± 0.0026,1.979 ± 0.012,,,,
AUUGCA,1.976 ± 0.0096,1.98 ± 0.05,,,,
AUUGCC,2.02 ± 0.029,2.02 ± 0.055,,,,
GUUUUU,2.015 ± 0.0093,2 ± 0.02,,,,
GUUUUG,2.007 ± 0.0091,2.02 ± 0.049,,,,
AUUUGU,1.945 ± 0.002,2.02 ± 0.042,,,,
AUUUGC,2 ± 0.02,1.99 ± 0.026,,,,
AUUUGA,1.965 ± 0.0074,2 ± 0.053,,,,
AUUGUA,1.941 ± 0.016,2 ± 0.02,,,,
AUUGUU,1.988 ± 0.0071,1.998 ± 0.008,,,,
AUUGUC,2.06 ± 0.038,2.05 ± 0.066,,,,
GUUCUC,2.112 ± 0.0075,2.076 ± 0.02,,,,
GUUCUU,2.0414 ± 0.0017,2.04 ± 0.028,,,,
GUUCUG,1.981 ± 0.015,1.987 ± 0.014,,,,
CUUUCA,1.992 ± 0.013,2.01 ± 0.077,,,,
CUUUCC,2.02 ± 0.03,2 ± 0.021,,,,
CUUUCG,2.047 ± 0.0046,2.053 ± 0.0034,,,,
CUUUCU,1.998 ± 0.005,1.99 ± 0.035,,,,
UUUCGU,1.98 ± 0.017,2.01 ± 0.012,,,,
UUUCGG,1.9984 ± 0.00042,1.99 ± 0.022,,,,
UUUCGC,2.01 ± 0.016,2 ± 0.011,,,,

Variant,"normalized RNA/DNA level without ligand (log10) ((6R,S)-folinic acid [1])","normalized RNA/DNA level with ligand (log10) ((6R,S)-folinic acid [2])",FACS-Seq fitted mean (log10) (cyclic di-GMP [3]),normalized RNA/DNA level without ligand (log10) (cyclic di-GMP [4]),FACS-Seq fitted mean (log10) (cyclic di-GMP [5]),normalized RNA/DNA level with ligand (log10) (cyclic di-GMP [6])
CUUGCG,2.03 ± 0.017,2.01 ± 0.029,,,,
CUUGCU,2.051 ± 0.0067,2.04 ± 0.012,,,,
CUUGCC,2.03 ± 0.0023,2 ± 0.064,,,,
CUUGCA,2.019 ± 0.0087,2.03 ± 0.043,,,,
GUUUCC,2.021 ± 0.015,2 ± 0.068,,,,
GUUUCA,2.03 ± 0.034,1.99 ± 0.04,,,,
GUUUCG,1.99 ± 0.027,1.99 ± 0.039,,,,
GUUUCU,1.965 ± 0.012,1.97 ± 0.068,,,,
AUUGGU,1.884 ± 0.011,1.99 ± 0.056,,,,
AUUGGC,2.011 ± 0.012,2.05 ± 0.012,,,,
AUUGGG,1.7701 ± 0.00019,1.99 ± 0.033,,,,
AUUGAU,1.93 ± 0.0058,2.01 ± 0.036,,,,
AUUGAC,1.99 ± 0.016,1.97 ± 0.046,,,,
AAAAUU,,,-0.708 ± 0.058,1.62 ± 0.034,-0.4137 ± 0.00058,1.76 ± 0.085
AAAAUG,,,-0.0352 ± 0.079,1.5 ± 0.05,0.319 ± 0.046,1.7 ± 0.12
AAAAUC,,,0.0212 ± 0.1,1.62 ± 0.028,0.2003 ± 0.0016,1.76 ± 0.06
CAAAUA,,,-0.296 ± 0.0065,1.28 ± 0.11,-0.211 ± 0.2,1.46 ± 0.14
CAAAUU,,,-0.59 ± 0.046,1.45 ± 0.12,-0.349 ± 0.046,1.67 ± 0.076
GAAACA,,,-0.441 ± 0.093,1.61 ± 0.023,-0.185 ± 0.018,1.73 ± 0.1
UAAAAG,,,-0.3384 ± 0.0033,1.685 ± 0.0079,-0.102 ± 0.2,1.84 ± 0.1
UAAAGA,,,-0.0343 ± 0.1,1.6 ± 0.047,0.167 ± 0.024,1.73 ± 0.12
GAAAUA,,,0.098 ± 0.25,1.47 ± 0.079,0.291 ± 0.031,1.65 ± 0.12
GAAAUU,,,-0.0957 ± 0.14,1.5921 ± 0.00088,0.215 ± 0.096,1.78 ± 0.11
GAAAUG,,,-0.4346 ± 0.0037,1.55 ± 0.067,-0.122 ± 0.1,1.71 ± 0.11
GAAGUU,,,-0.118 ± 0.022,1.55 ± 0.072,0.245 ± 0.074,1.7 ± 0.091
GAAAAA,,,-0.369 ± 0.068,1.41 ± 0.1,-0.0537 ± 0.033,1.61 ± 0.12
